Patent US20210388087A1 (Chugai, published 2021)

Biological target: T1, Human CD137 ECD (human)
T1 construct: entry includes C-terminal His-tag and biotin acceptor peptide; also called human CD137 extracellular domain; 4-1BB
Test: Biacore SPR, vs parent H183/L072

T1 sequence (chain, as listed by the source limits assumed): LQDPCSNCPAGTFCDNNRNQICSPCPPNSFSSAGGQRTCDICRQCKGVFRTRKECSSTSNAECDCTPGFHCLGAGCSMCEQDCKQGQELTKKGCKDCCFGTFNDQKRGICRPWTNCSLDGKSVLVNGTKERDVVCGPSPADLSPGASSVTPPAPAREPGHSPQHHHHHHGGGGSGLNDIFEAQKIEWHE

Binder	fold change of affinity [fold]
H183/L072 VL S26M (antibody, name in Kabat numbering, V domains shown, Dual-Ig) VH: QVQLVESGGGLVQPGRSLRLSCAASGFTFSNAWMHWVRQAPGKGLEWVAQIKDKGNAYAAYYAPSVKGRFTISRDDSKNSIYLQMNSLKTEDTAVYYCHYVHYASASTVLPAFGVDAWGQGTTVTVSS VL: DIVMTQSPLSLPVTPGEPASISCQAMQELVHMNRNTYLHWYQQKPGQAPRLLIYKVSNRFPGVPDRFSGSGSGTDFTLKISRVEAEDVGVYYCAQGTSVPFTFGQGTKLEIK	0.6
H183/L072 VL S52F (antibody, name in Kabat numbering, V domains shown, Dual-Ig) VH: QVQLVESGGGLVQPGRSLRLSCAASGFTFSNAWMHWVRQAPGKGLEWVAQIKDKGNAYAAYYAPSVKGRFTISRDDSKNSIYLQMNSLKTEDTAVYYCHYVHYASASTVLPAFGVDAWGQGTTVTVSS VL: DIVMTQSPLSLPVTPGEPASISCQASQELVHMNRNTYLHWYQQKPGQAPRLLIYKVFNRFPGVPDRFSGSGSGTDFTLKISRVEAEDVGVYYCAQGTSVPFTFGQGTKLEIK	1.2
H183/L072 VL S26Y (antibody, name in Kabat numbering, V domains shown, Dual-Ig) VH: QVQLVESGGGLVQPGRSLRLSCAASGFTFSNAWMHWVRQAPGKGLEWVAQIKDKGNAYAAYYAPSVKGRFTISRDDSKNSIYLQMNSLKTEDTAVYYCHYVHYASASTVLPAFGVDAWGQGTTVTVSS VL: DIVMTQSPLSLPVTPGEPASISCQAYQELVHMNRNTYLHWYQQKPGQAPRLLIYKVSNRFPGVPDRFSGSGSGTDFTLKISRVEAEDVGVYYCAQGTSVPFTFGQGTKLEIK	0.2
H183/L072 VL S26T (antibody, name in Kabat numbering, V domains shown, Dual-Ig) VH: QVQLVESGGGLVQPGRSLRLSCAASGFTFSNAWMHWVRQAPGKGLEWVAQIKDKGNAYAAYYAPSVKGRFTISRDDSKNSIYLQMNSLKTEDTAVYYCHYVHYASASTVLPAFGVDAWGQGTTVTVSS VL: DIVMTQSPLSLPVTPGEPASISCQATQELVHMNRNTYLHWYQQKPGQAPRLLIYKVSNRFPGVPDRFSGSGSGTDFTLKISRVEAEDVGVYYCAQGTSVPFTFGQGTKLEIK	1
H183/L072 VL S26W (antibody, name in Kabat numbering, V domains shown, Dual-Ig) VH: QVQLVESGGGLVQPGRSLRLSCAASGFTFSNAWMHWVRQAPGKGLEWVAQIKDKGNAYAAYYAPSVKGRFTISRDDSKNSIYLQMNSLKTEDTAVYYCHYVHYASASTVLPAFGVDAWGQGTTVTVSS VL: DIVMTQSPLSLPVTPGEPASISCQAWQELVHMNRNTYLHWYQQKPGQAPRLLIYKVSNRFPGVPDRFSGSGSGTDFTLKISRVEAEDVGVYYCAQGTSVPFTFGQGTKLEIK	0.1
H183/L072 VL S52D (antibody, name in Kabat numbering, V domains shown, Dual-Ig) VH: QVQLVESGGGLVQPGRSLRLSCAASGFTFSNAWMHWVRQAPGKGLEWVAQIKDKGNAYAAYYAPSVKGRFTISRDDSKNSIYLQMNSLKTEDTAVYYCHYVHYASASTVLPAFGVDAWGQGTTVTVSS VL: DIVMTQSPLSLPVTPGEPASISCQASQELVHMNRNTYLHWYQQKPGQAPRLLIYKVDNRFPGVPDRFSGSGSGTDFTLKISRVEAEDVGVYYCAQGTSVPFTFGQGTKLEIK	0.8
H183/L072 VL S26Q (antibody, name in Kabat numbering, V domains shown, Dual-Ig) VH: QVQLVESGGGLVQPGRSLRLSCAASGFTFSNAWMHWVRQAPGKGLEWVAQIKDKGNAYAAYYAPSVKGRFTISRDDSKNSIYLQMNSLKTEDTAVYYCHYVHYASASTVLPAFGVDAWGQGTTVTVSS VL: DIVMTQSPLSLPVTPGEPASISCQAQQELVHMNRNTYLHWYQQKPGQAPRLLIYKVSNRFPGVPDRFSGSGSGTDFTLKISRVEAEDVGVYYCAQGTSVPFTFGQGTKLEIK	0.7
H183/L072 VL S52N (antibody, name in Kabat numbering, V domains shown, Dual-Ig) VH: QVQLVESGGGLVQPGRSLRLSCAASGFTFSNAWMHWVRQAPGKGLEWVAQIKDKGNAYAAYYAPSVKGRFTISRDDSKNSIYLQMNSLKTEDTAVYYCHYVHYASASTVLPAFGVDAWGQGTTVTVSS VL: DIVMTQSPLSLPVTPGEPASISCQASQELVHMNRNTYLHWYQQKPGQAPRLLIYKVNNRFPGVPDRFSGSGSGTDFTLKISRVEAEDVGVYYCAQGTSVPFTFGQGTKLEIK	1
H183/L072 VL S26V (antibody, name in Kabat numbering, V domains shown, Dual-Ig) VH: QVQLVESGGGLVQPGRSLRLSCAASGFTFSNAWMHWVRQAPGKGLEWVAQIKDKGNAYAAYYAPSVKGRFTISRDDSKNSIYLQMNSLKTEDTAVYYCHYVHYASASTVLPAFGVDAWGQGTTVTVSS VL: DIVMTQSPLSLPVTPGEPASISCQAVQELVHMNRNTYLHWYQQKPGQAPRLLIYKVSNRFPGVPDRFSGSGSGTDFTLKISRVEAEDVGVYYCAQGTSVPFTFGQGTKLEIK	0.3
H183/L072 VL S52E (antibody, name in Kabat numbering, V domains shown, Dual-Ig) VH: QVQLVESGGGLVQPGRSLRLSCAASGFTFSNAWMHWVRQAPGKGLEWVAQIKDKGNAYAAYYAPSVKGRFTISRDDSKNSIYLQMNSLKTEDTAVYYCHYVHYASASTVLPAFGVDAWGQGTTVTVSS VL: DIVMTQSPLSLPVTPGEPASISCQASQELVHMNRNTYLHWYQQKPGQAPRLLIYKVENRFPGVPDRFSGSGSGTDFTLKISRVEAEDVGVYYCAQGTSVPFTFGQGTKLEIK	1
H183/L072 VL S52K (antibody, name in Kabat numbering, V domains shown, Dual-Ig) VH: QVQLVESGGGLVQPGRSLRLSCAASGFTFSNAWMHWVRQAPGKGLEWVAQIKDKGNAYAAYYAPSVKGRFTISRDDSKNSIYLQMNSLKTEDTAVYYCHYVHYASASTVLPAFGVDAWGQGTTVTVSS VL: DIVMTQSPLSLPVTPGEPASISCQASQELVHMNRNTYLHWYQQKPGQAPRLLIYKVKNRFPGVPDRFSGSGSGTDFTLKISRVEAEDVGVYYCAQGTSVPFTFGQGTKLEIK	1.2
H183/L072 VL S26P (antibody, name in Kabat numbering, V domains shown, Dual-Ig) VH: QVQLVESGGGLVQPGRSLRLSCAASGFTFSNAWMHWVRQAPGKGLEWVAQIKDKGNAYAAYYAPSVKGRFTISRDDSKNSIYLQMNSLKTEDTAVYYCHYVHYASASTVLPAFGVDAWGQGTTVTVSS VL: DIVMTQSPLSLPVTPGEPASISCQAPQELVHMNRNTYLHWYQQKPGQAPRLLIYKVSNRFPGVPDRFSGSGSGTDFTLKISRVEAEDVGVYYCAQGTSVPFTFGQGTKLEIK	0.2
H183/L072 VL S52I (antibody, name in Kabat numbering, V domains shown, Dual-Ig) VH: QVQLVESGGGLVQPGRSLRLSCAASGFTFSNAWMHWVRQAPGKGLEWVAQIKDKGNAYAAYYAPSVKGRFTISRDDSKNSIYLQMNSLKTEDTAVYYCHYVHYASASTVLPAFGVDAWGQGTTVTVSS VL: DIVMTQSPLSLPVTPGEPASISCQASQELVHMNRNTYLHWYQQKPGQAPRLLIYKVINRFPGVPDRFSGSGSGTDFTLKISRVEAEDVGVYYCAQGTSVPFTFGQGTKLEIK	1.4
H183/L072 VL S52A (antibody, name in Kabat numbering, V domains shown, Dual-Ig) VH: QVQLVESGGGLVQPGRSLRLSCAASGFTFSNAWMHWVRQAPGKGLEWVAQIKDKGNAYAAYYAPSVKGRFTISRDDSKNSIYLQMNSLKTEDTAVYYCHYVHYASASTVLPAFGVDAWGQGTTVTVSS VL: DIVMTQSPLSLPVTPGEPASISCQASQELVHMNRNTYLHWYQQKPGQAPRLLIYKVANRFPGVPDRFSGSGSGTDFTLKISRVEAEDVGVYYCAQGTSVPFTFGQGTKLEIK	1
H183/L072 VL S26R (antibody, name in Kabat numbering, V domains shown, Dual-Ig) VH: QVQLVESGGGLVQPGRSLRLSCAASGFTFSNAWMHWVRQAPGKGLEWVAQIKDKGNAYAAYYAPSVKGRFTISRDDSKNSIYLQMNSLKTEDTAVYYCHYVHYASASTVLPAFGVDAWGQGTTVTVSS VL: DIVMTQSPLSLPVTPGEPASISCQARQELVHMNRNTYLHWYQQKPGQAPRLLIYKVSNRFPGVPDRFSGSGSGTDFTLKISRVEAEDVGVYYCAQGTSVPFTFGQGTKLEIK	0.3
H183/L072 VL S52L (antibody, name in Kabat numbering, V domains shown, Dual-Ig) VH: QVQLVESGGGLVQPGRSLRLSCAASGFTFSNAWMHWVRQAPGKGLEWVAQIKDKGNAYAAYYAPSVKGRFTISRDDSKNSIYLQMNSLKTEDTAVYYCHYVHYASASTVLPAFGVDAWGQGTTVTVSS VL: DIVMTQSPLSLPVTPGEPASISCQASQELVHMNRNTYLHWYQQKPGQAPRLLIYKVLNRFPGVPDRFSGSGSGTDFTLKISRVEAEDVGVYYCAQGTSVPFTFGQGTKLEIK	1.2
H183/L072 VL S52H (antibody, name in Kabat numbering, V domains shown, Dual-Ig) VH: QVQLVESGGGLVQPGRSLRLSCAASGFTFSNAWMHWVRQAPGKGLEWVAQIKDKGNAYAAYYAPSVKGRFTISRDDSKNSIYLQMNSLKTEDTAVYYCHYVHYASASTVLPAFGVDAWGQGTTVTVSS VL: DIVMTQSPLSLPVTPGEPASISCQASQELVHMNRNTYLHWYQQKPGQAPRLLIYKVHNRFPGVPDRFSGSGSGTDFTLKISRVEAEDVGVYYCAQGTSVPFTFGQGTKLEIK	1.2
H183/L072 VL S26N (antibody, name in Kabat numbering, V domains shown, Dual-Ig) VH: QVQLVESGGGLVQPGRSLRLSCAASGFTFSNAWMHWVRQAPGKGLEWVAQIKDKGNAYAAYYAPSVKGRFTISRDDSKNSIYLQMNSLKTEDTAVYYCHYVHYASASTVLPAFGVDAWGQGTTVTVSS VL: DIVMTQSPLSLPVTPGEPASISCQANQELVHMNRNTYLHWYQQKPGQAPRLLIYKVSNRFPGVPDRFSGSGSGTDFTLKISRVEAEDVGVYYCAQGTSVPFTFGQGTKLEIK	0.7
H183/L072 VL S52G (antibody, name in Kabat numbering, V domains shown, Dual-Ig) VH: QVQLVESGGGLVQPGRSLRLSCAASGFTFSNAWMHWVRQAPGKGLEWVAQIKDKGNAYAAYYAPSVKGRFTISRDDSKNSIYLQMNSLKTEDTAVYYCHYVHYASASTVLPAFGVDAWGQGTTVTVSS VL: DIVMTQSPLSLPVTPGEPASISCQASQELVHMNRNTYLHWYQQKPGQAPRLLIYKVGNRFPGVPDRFSGSGSGTDFTLKISRVEAEDVGVYYCAQGTSVPFTFGQGTKLEIK	0.8
H183/L072 VL S52M (antibody, name in Kabat numbering, V domains shown, Dual-Ig) VH: QVQLVESGGGLVQPGRSLRLSCAASGFTFSNAWMHWVRQAPGKGLEWVAQIKDKGNAYAAYYAPSVKGRFTISRDDSKNSIYLQMNSLKTEDTAVYYCHYVHYASASTVLPAFGVDAWGQGTTVTVSS VL: DIVMTQSPLSLPVTPGEPASISCQASQELVHMNRNTYLHWYQQKPGQAPRLLIYKVMNRFPGVPDRFSGSGSGTDFTLKISRVEAEDVGVYYCAQGTSVPFTFGQGTKLEIK	1.1
